The source of these data is PMC9439264 (Nature Communications, 2022).

In test [1] the target is T1, HA ectodomain of A/California/04/2009 (H1N1), recombinant (Influenza A virus A/California/04/2009 …, strain).
T1 construct: source: baculovirus (pAcGP67B), H5 insect cells, supernatant purified with Ni-NTA
Kind of test: SEC. The conditions noted are these: both partners purified.

The target in test [2] is T2, HAhr^CA (head region of CA4/2009 HA, degraded HA monomer in the crystal) (Influenza A virus A/California/04/2009 …, strain).
T2 chain: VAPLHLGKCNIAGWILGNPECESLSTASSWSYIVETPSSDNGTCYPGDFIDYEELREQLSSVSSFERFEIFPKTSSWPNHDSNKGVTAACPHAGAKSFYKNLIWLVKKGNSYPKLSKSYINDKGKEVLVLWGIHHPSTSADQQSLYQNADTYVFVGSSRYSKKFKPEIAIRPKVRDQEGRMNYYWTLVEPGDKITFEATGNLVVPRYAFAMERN
Kind of test: crystal structure. The conditions noted are these: both partners purified.

B1: 12H5 Fab (mouse antibody) (Fab, V domains shown)
VH: QIQLVQSGPELKKPGETVRISCKASGYTFTKNGMNWVQQAPGKGLKWVGWINTYTGEPSYADDFKGRFAFSLETSASTAYLQINNLKNEDMAAYFCARMVRDAMDFWGQGTSVTVSS
VL: DIVLTQSPASLAVSLGQRATISCKASQSVDFDGYNYLNWYQQKPGQPPKLLIYAASNLESGIPARFSGSGSGTDFTLNIHPVEEEDAATYFCQQSNEDPYTFGGGTKLEIK
notes: source: papain digestion of mAb 12H5 (mouse ascites, protein A), purified with DEAE-5PW
For B1, the binding result in test [1] and in test [2] was “binds” throughout.
